We go through 2 compounds from publication PMC9732821, “Neurotrophic Activity and Its Modulation by Zinc Ion of a Dimeric Peptide Mimicking the Brain-Derived Neurotrophic Factor N-Terminal Region” (ACS Chemical Neuroscience, 2022).

Test [1] deals with TrkB receptor, endogenous in differentiated SH-SY5Y cells (human (endogenous in SH-SY5Y)) (UniProt Q16620). The test is described as follows: immunostaining of cells or tissue; non-permeabilizing immunofluorescence of membrane-bound BDNF on differentiated SH-SY5Y cells; 1 h treatment with BDNF 150 ng/mL, d-bdnf 10 μM, or both.
The target is the same in test [2].
Test [3] has as its system TrkB. As to conditions: synaptic cleft; cited from earlier work. An excerpt: BDNF is the predominant NT in the adult brain and is widely distributed in the cortical areas, visual cortex, and hippocampus.[3] Activation of TrkB by BDNF initiates downstream signaling cascades mediated by Ras/ERK, PI3K/Akt, and PLC-γ.[4] After its activation, the BDNF–TrkB complex undergoes endocytosis, recycling, or degradation and crucially takes the axonal transport route to sustain neuron survival and differentiation.[5] Furthermore, BDNF/TrkB signaling regulates dendritic branching, the density of spines, and spine morphological specializations, acting both as the mediator and modulat ... || The modulation of the BDNF–TrkB signaling axis has been recently postulated as a drug target for the treatment of neurological diseases, including nerve injury, neurodegenerative diseases, and neuropsychiatric disorders.[15],[16] Unfortunately, the therapeutic use of BDNF, as that of other NTs, is challenging due to the uncontrolled side effects as well as their low bioavailability.[17] To overcome such limitations, the use of peptide fragments that can mimic specific domains of the NTs has been explored in the last few years.[18] The most investigated BDNF structural elements have been so far ...

UniProt Q16620, sequence (Q16620 32-822): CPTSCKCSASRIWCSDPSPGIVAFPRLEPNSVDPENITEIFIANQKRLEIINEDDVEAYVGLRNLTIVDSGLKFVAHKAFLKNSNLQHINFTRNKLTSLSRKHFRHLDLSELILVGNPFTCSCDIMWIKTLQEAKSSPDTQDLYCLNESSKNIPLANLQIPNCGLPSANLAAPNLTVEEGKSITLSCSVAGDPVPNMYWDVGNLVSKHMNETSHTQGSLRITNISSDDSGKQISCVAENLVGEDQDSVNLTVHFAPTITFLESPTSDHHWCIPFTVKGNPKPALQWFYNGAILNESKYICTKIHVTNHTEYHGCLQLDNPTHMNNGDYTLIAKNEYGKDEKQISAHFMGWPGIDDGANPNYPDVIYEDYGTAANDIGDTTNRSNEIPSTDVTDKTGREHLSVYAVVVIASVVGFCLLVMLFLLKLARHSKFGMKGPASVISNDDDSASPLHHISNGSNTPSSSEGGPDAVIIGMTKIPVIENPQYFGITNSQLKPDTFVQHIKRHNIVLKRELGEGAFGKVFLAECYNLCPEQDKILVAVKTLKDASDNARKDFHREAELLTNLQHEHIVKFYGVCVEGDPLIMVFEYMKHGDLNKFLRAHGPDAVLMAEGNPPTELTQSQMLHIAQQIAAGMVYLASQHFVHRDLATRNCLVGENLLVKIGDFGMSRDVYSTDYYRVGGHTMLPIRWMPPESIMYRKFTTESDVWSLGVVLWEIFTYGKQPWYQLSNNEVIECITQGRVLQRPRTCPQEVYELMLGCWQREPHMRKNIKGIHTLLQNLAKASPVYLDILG

“recombinant human mature BDNF (hBDNF) (ligand)” yielded an increase of the fluorescent signal of membrane-bound BDNF on the cells in test [1] of 40%. In test [2], this compound had an EC50 of ERK phosphorylation, dose-response in differentiated SH-SY5Y cells (referred to the monomer form) of 690 pM and a maximal effect (Emax) of ERK phosphorylation, dose-response in differentiated SH-SY5Y cells of 237.
Consider `[Zn+2]` [zinc], for which the TrkB activation entry in test [3] is given as “prompt post-synaptic, BDNF-independent TrkB activation”.
